Assay results published in patent US20050037969A1 (ARBOR VITA, published 2005).
Ends that are not written are not given here. * marks the point of attachment. Biotin = O=C1N[C@H]2[C@H](CS[C@H]2CCCCC(=O)*)N1

Key:
[1] = biological target: T1, KIAA0807 (PDZ domain)-GST fusion protein (human, UniProt Q6P0Q8 1104-1192); test: G assay competition against 10 uM DOCK2 20-mer; 8-mer DOCK2 peptide competing against 10 uM DOCK2 20-mer
T1 construct: also called K807; KIAA807; not shown: glutathione S-transferase encoded by vector pGEX-3X (Pharmacia)
T1 sequence: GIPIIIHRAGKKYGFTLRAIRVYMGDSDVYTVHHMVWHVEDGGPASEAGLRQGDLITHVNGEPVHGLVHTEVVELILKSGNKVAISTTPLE

[2] = biological target: T2, GST-41.8 kD protein (KIAA0751) PDZ domain fusion protein (Mus musculus (Mouse), UniProt Q9EQZ7 682-763); test: G assay competition on plate-bound GST-41.8kD; blocked ligand: 20 uM biotinylated CD49E peptide
T2 construct: also called 41 kd; hypoth; not shown: glutathione S-transferase encoded by vector pGEX-3X (Pharmacia)
T2 sequence: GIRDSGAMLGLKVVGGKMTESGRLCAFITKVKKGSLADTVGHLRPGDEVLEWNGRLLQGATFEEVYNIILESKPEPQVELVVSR

[3] = biological target: T3, GST-PSD95 fusion protein (PDZ domains 1-3) (human, UniProt P31016 56-395 (rat entry)); test: G assay competition on plate-bound GST-PSD95, competitor at 100 uM; blocked ligands: biotinylated Clasp 2 and CD46 (20 uM), Fas and KV1.3 (10 uM) peptides
T3 construct: also called human post-synaptic density protein 95; not shown: glutathione S-transferase encoded by vector pGEX-3X (Pharmacia)
T3 sequence (P31016 other isoform, or with tags, fused parts or gaps): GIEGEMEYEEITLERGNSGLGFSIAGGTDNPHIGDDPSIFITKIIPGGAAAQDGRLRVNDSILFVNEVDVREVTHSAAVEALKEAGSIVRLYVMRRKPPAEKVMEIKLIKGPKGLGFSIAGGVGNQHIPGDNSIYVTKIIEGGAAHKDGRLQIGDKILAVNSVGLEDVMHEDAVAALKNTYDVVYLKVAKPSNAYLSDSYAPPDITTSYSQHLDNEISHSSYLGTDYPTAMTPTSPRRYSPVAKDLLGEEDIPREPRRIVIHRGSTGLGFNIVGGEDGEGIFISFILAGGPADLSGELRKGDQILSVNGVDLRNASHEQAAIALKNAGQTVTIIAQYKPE

[4] = biological target: T3, GST-PSD95 fusion protein (PDZ domains …); test: G assay: biotinylated peptide on plate-bound GST-PDZ fusion, OD 450 nm
[5] = biological target: T1, KIAA0807 (PDZ domain)-GST fusion protein; test: G assay competition against 1 uM BLR-1 20-mer
[6] = biological target: T1, KIAA0807 (PDZ domain)-GST fusion protein; test: G assay competition against 10 uM DOCK2 20-mer; acetyl-STDL competing against 10 uM DOCK2 20-mer

PDSLSTDL (also called DOCK2 8-mer) [8-mer peptide corresponding to the C-terminus of DOCK2]
IC50 [1]: 250 µM

ATSDA (also called 5-mer CD49E peptide ATSDA) [CD49E 5mer]
binding result [2]: binds

B1: Fas (CD95) 8-mer competitor peptide RNEIQSLV (unlabeled) (peptide)
peptide: RNEIQSLV
notes: also called FAS-8-mer; 8-mer peptide corresponding to the C-terminus of CD95 (Fas)
binding result [3]: binds

B2: 30 (peptide)
peptide: Biotin-TIYENLAPVTTFGKTIA
notes: Not the same peptide as m50 (AA19L, ending GYIA); the key gives AA55L for peptide 30; also called CD148
binding result [4]: no binding

TTNNNPNSAVNIKKIFTDV (also called KV13 peptide) [unlabeled 19-mer having the sequence of the C-terminus of KV1.3 (non-biotinylated AA33L)]
binding result [3]: binds

REVKFTSL [CD46 8-mer competitor peptide REVKFTSL (unlabeled)]
binding result [3]: binds

Ac-LTTF (it is an N-acetyl tetrapeptide) [acetyl-LTTF]
IC50 [5]: 1 µM

NATSLTTF (also called BLR-1 8-mer) [8-mer peptide corresponding to the C-terminus of BLR-1]
IC50 [5]: > 100 µM

Ac-STDL (it is an N-acetyl tetrapeptide) [acetyl-STDL]
IC50 [6]: < 250 µM
